This passage reports Kd results from article PMC10218236.

Values joined by “and” are separate entries in the source; they are usually repeats but may differ in a detail not shown here. Equal entries are not always repeated.

Chain of L1CAM on L1CAM-high cells (LoVo) (Homo sapiens?) (P32004 20-1257): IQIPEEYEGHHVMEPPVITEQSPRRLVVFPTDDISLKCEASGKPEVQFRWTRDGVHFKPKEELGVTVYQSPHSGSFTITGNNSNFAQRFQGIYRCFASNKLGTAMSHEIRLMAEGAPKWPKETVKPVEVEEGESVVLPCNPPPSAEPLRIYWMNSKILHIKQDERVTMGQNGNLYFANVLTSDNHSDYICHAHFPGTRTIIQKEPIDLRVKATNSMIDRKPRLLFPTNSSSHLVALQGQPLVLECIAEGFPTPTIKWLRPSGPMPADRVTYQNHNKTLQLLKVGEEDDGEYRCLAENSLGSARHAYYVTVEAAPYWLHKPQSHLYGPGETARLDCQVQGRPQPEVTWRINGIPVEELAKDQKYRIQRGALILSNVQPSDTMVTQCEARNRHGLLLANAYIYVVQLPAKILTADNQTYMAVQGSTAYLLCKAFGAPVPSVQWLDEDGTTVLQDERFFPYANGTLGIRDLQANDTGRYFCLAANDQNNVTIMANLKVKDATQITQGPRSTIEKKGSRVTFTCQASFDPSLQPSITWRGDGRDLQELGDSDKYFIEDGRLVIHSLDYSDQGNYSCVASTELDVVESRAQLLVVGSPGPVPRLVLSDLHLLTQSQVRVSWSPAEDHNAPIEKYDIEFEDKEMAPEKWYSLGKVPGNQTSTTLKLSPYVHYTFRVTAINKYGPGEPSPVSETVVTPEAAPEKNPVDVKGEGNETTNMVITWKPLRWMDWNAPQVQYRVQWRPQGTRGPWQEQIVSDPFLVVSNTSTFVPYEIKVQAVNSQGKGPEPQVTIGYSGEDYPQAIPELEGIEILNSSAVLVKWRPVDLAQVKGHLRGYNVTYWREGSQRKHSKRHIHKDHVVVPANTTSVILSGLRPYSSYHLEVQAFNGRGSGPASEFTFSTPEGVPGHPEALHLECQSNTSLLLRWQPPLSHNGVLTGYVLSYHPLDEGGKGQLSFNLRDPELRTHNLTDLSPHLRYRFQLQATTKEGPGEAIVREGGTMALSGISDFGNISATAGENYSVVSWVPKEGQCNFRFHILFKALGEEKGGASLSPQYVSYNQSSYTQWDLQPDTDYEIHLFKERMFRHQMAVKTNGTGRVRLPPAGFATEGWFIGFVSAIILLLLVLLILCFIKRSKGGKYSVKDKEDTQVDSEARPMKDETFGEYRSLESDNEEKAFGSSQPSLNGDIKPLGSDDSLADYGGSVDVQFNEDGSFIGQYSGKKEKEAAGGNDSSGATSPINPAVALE

One series addresses L1CAM on L1CAM-high cells (LoVo) (Homo sapiens?) (UniProt P32004). The series is described as follows: flow cytometry. As to conditions: PBS, 4.5 g/L glucose, 5 mM MgCl2, 1 mg/mL BSA, 0.1 mg/mL herring sperm DNA; 30 min at 4 °C (or 25/37 °C); pH not stated. In general terms: In flow cytometry, cells or beads pass a laser one at a time.
By Kd is commonly meant the equilibrium constant for the complex coming apart. “CAGATAGGGGGTAGCTCGGTCGTGTTTTTGGGTTGTTTGGTGGGCCTTCTG [yly20-T45C]” came in with a Kd of 66.9 nM.

Turning to “CGGATAGGGGGTAGCTCGGTCGTGTTTTTGGGTTGTTTGGTGGGTCTTCTG [yly34]”, the Kd was 3.4 nM and 7.2 nM and 18.7 nM.

The sequence “CAGATAGGGGGTAGCTCGGTCGTGTTTTTGGGTTGTTTGGTGGGTATTCTG [yly20-C46A]” registered a Kd of 46.4 nM.

In turn, “CAGATAGGGGGTAGCCCGGTCGTGTTTTTGGGTTGTTTGGTGGGTCTTCTG [yly20-T16C]” showed an equilibrium dissociation constant (Kd) of 44.2 nM.

As for “CAGATAGGGGGTAGCTCGGTCGTGTTTTTGGGTTATTTGGTGGGTCTTCTG [yly20-G35A]”, the Kd is 53.1 nM.

“CAGATAGGGGGTAGCTCGGTCGTGATTTTGGGTTGTTTGGTGGGTCTTCTG [yly20-T25A]” registered a Kd of 1.7 nM.

On to “CAGATAGGGGGTAGCTCGGTCGTGTTTCCGGGTTGTTTGGTGGGTCTTCTG [yly20-T2829C]”, for which the Kd is 55.9 nM.

For “CAGATAGGGGGTAGCTCGGTCGTGTTTTTGGGTTGTTTGGTGGGTCTTCTG [yly20]”, the Kd is 2.3 nM and 1.9 nM and 7.6 nM.

In the case of “GGGATAGGGGGTAGCTCGGTCGTGTTTTTGGGTTGTTTGGTGGGTCTTCTG [yly33]”, the Kd was 6.2 nM and 12 nM and 41.4 nM.

As to “CAGATAGGGGGTAGCTAGGTCGTGTTTTTGGGTTGTTTGGTGGGTCTTCTG [yly20-C17A]”, the Kd is 3.4 nM.

Consider “CAGAAGGGGGTAGCTCGGTCGTGTTTTTGGGTTGTTTGGTGGGTCTTCTG [yly20-5-T]”, for which the Kd was 112 nM.

Take “AGCGCAGATAGGGGGTAGCTCGGTCGTGTTTTTGGGTTGTTTGGTGGGTCTTCTGCGCT [yly21]”: the Kd was 1.3 nM and 0.9 nM and 5.1 nM.

“CAGATAGGGGGTAGCTCGGTCATGTTTTTGGGTTGTTTGGTGGGTCTTCTG [yly20-G22A]” had a Kd of 1.3 nM.

Sequence “CAGATAGGGGGTAGCTCGGTCGTGTTTTTGGGCTGTTTGGTGGGTCTTCTG [yly20-T33C]” had a Kd of 9.5 nM.

“CAGATAGGGGGTAGCTCGGTCGTGTTTTCGGGTTGTTTGGTGGGTCTTCTG [yly20-T29C]” yielded a Kd of 4.2 nM.

Consider “CAGATAGGGGGTAGCCCGGTCGTGTTTTCGGGTTGTTTGGTGGGTCTTCTG [yly20-T1629C]”, for which the Kd amounted to 155 nM.

“CAGATAGAGGGTAGCTCGGTCGTGTTTTTGGGTTGTTTGGTGGGTCTTCTG [yly20-G8A]” gave a Kd of 18.9 nM.

In turn, “AGCGCAGAAGGGGGTAGCTCGGTCGTGTTTTTGGGTTGTTTGGTGGGTCTTCTGCGCT [yly21-9-T]” displayed a Kd of 107 nM.

“AGGATAGGGGGTAGCTCGGTCGTGTTTTTGGGTTGTTTGGTGGGTCTTCTG [yly12]”: the Kd was 21.6 nM and 111 nM.

On to “CAGATAGGGGGTAGCTCGGTCGTGTTTCTGGGTTGTTTGGTGGGTCTTCTG [yly20-T28C]”, for which the Kd was 5.3 nM.

For the sequence “TTTGGGTTGTTTGGTGGGTCTTCTGCAGATAGGGGGTAGCTCGGTCGTGTT [yly20re]”, the Kd is 4.2 nM and 4.4 nM and 13 nM.

The series is the same for the next values; noted with them: PBS, 4.5 g/L glucose, 5 mM MgCl2, 1 mg/mL BSA, 0.1 mg/mL herring sperm DNA; 30 min at 4 °C (or 25/37 °C); pH not stated; cited from earlier work.
With “AGGATAGGGGGTAGCTCGGTCGTGTTTTTGGGTTGTTTGGTGGGTCTT [yly13]”, the Kd is 369 nM.

For the sequence “TAGGGGGTAGCTCGGTCGTGTTTTTGGGTTGTTTGGTGGGTCTTCTG [yly16]”, the Kd was 330 nM.

In the case of “ATAGGGGGTAGCTCGGTCGTGTTTTTGGGTTGTTTGGTGGGTCTTCTG [yly14]”, the Kd was 92 nM.

On to “AGGATAGGGGGTAGCTCGGTCGTGTTTTTGGGTTGTTTGGTGGGTCTTCTG [yly12]”, for which the Kd was 3.5 nM.
